Like-named read-outs stand apart in the source and are kept apart here. Non-standard residues stand in square brackets, D forms with d. No end group written: not given here.
Experiments:
GPCR109a = GPCR109a (Homo sapiens, UniProt Q8TDS4); assay: cell-based
Description: The platform uses ChemiScreen GPCR stable cell lines that are used for real-time calcium flux assays to rapidly, screen a spectrum of GPCRs. […] Percentage activation values were determined upon initial addition of compound(s). Percentage activation and inhibition values were determined for each GPCR relative to the reference compounds.
Assays were performed according to the manufacturer's instructions. […] The assay plate was read by the FLIPR TETRA® (Molecular Devices, Sunnyvale, Calif.). All assay plate data were subjected to appropriate baseline corrections and the maximum fluorescence values were processed to calculate percentage activation (relative to ECmax reference agonist and vehicle control values).

C57BL/6J mice = assay: Oral glucose tolerance test (OGTT); type: in vivo, mouse
Description: C57BL/6J mice were received from Jackson Laboratories at 4 weeks old and aged to 7 weeks and then grouped by body weight into 4 groups of 10. The mice were fasted overnight (12 hours) prior to the assay. Body weights and blood glucose (FreeStyle Lite glucometer) levels were determined. […] At 30, 60, 90, and 120 minutes glucose levels were measured using whole blood collected from the tip of the tail via needle puncture. Upon the final 120 min measurement, food was returned to the mice.
Oral glucose tolerance tests (OGTTs) were performed as described in Example 1.
(§1) C57BL/6J mice were received from Jackson Laboratories at 4 weeks old and aged to 7 weeks and then grouped by body weight into 4 groups of 10. The mice were fasted overnight (12 hours) prior to the assay. Body weights and blood glucose (FreeStyle Lite glucometer) levels were determined. […] At 30, 60, 90, and 120 minutes glucose levels were measured using whole blood collected from the tip of the tail via needle puncture.
as §1

STC-1 cells = assay: GLP-1 secretion from STC-1 cells (ELISA); type: cell-based, mouse; conditions: 2 hours, DMEM without serum and glucose; FIG. 3
Description: The pathways and sites of action of H89 and U73122 are graphically represented in FIG. 2.
Supernatants were collected for GLP-1 measurement. and the GLP-1 concentration was measured using a total GLP-1 (7-36 and 9-36) ELISA kit according to manufacturer's instruction (Alpco. Salem, N.H.).

HEK293T cells = conditions: 0.0037-0.1 mM; FIG. 4
Description: Real-time Ca2+ flux assays. To further validate the GPCRProfiler results, we established a real-time Ca2+ flux assay using a FlexStation 3 Microplate Reader (Molecular Devices). […] The Fluo-4 Direct™ Calcium Assay Kits (Life Technologies), which allows direct addition to wells containing cells growing in culture media without the requirement of media removal or a wash step, is used to monitor Ca2+ flux in cells according to the manufacturer's protocol. Briefly, HEK293T cells are plated and cultured in 96-well microplates to near confluence. The microplates containing cells are removed from the incubator and an equal volume of 2× Fluo-4 Direct™ calcium reagent loading solution is added directly to wells containing cells in culture medium. The plates are incubated for 30 minutes at 37° C. and 30 minutes at room temperature. Then the plates (no need to remove the medium or Fluo-4 Direct™ calcium reagent) are placed on FlexStation 3 with settings appropriate for excitation at 494 nm and emission at 516 nm. FlexStation 3 can directly transfer reagents from 96-well source plates to a read plate one column at a time. […] Shaded shapes are negative controls.

HUVEC cells = conditions: 4 mM time course, 0.05-32.0 mM for 60 minutes; FIGS. 16, 17
Description: Briefly, HUVEC cells, previously plated in 96-well plate, were washed and the media changed to DMEM with 3% FBS for overnight incubation and cell starvation. On the day of the experiment, the cells were incubated with DAF-FM diacetate (Molecular Probes, catalog #D23842) at the final concentration of 7-10 nM for 30 minutes. […] Every treatment was performed in triplicate. The fluorescence was detected starting at 10 min with exc/em of 495 nm/515 nm.
The background signal (fluorescence signal from cells that were not loaded with dye) was subtracted from the other measurements.
Briefly, HUVEC cells, previously plated in 96-well plate, were washed and the media changed to DMEM with 3% FBS for overnight incubation and cell starvation. On the day of the experiment, the cells were incubated with DAF-FM diacetate (Molecular Probes, catalog #D23842) at the final concentration of 7-10 nM for 30 minutes. […] Every treatment was performed in triplicate. The fluorescence was detected 60 minutes with exc/em of 495 nm/515 nm.

[1] = system: C57/BL/6J mice and diabetic mouse models; conditions: previous studies (Zhang 2013; U.S. Pat. No. 8,664,177); cited from earlier work
MRGD = MRGD (Homo sapiens, UniProt Q8TDS7); assay: Calcium mobilization in MRGD over-expressing cells; type: cell-based; set-up: host or cells: ChemiScreen over-expressing cell line, given as 'HEK 293T cells (Chem-1, EMD Millipore)'; conditions: at 5 mM, highest dose used; Example 4
Sequence of MRGD (Q8TDS7 whole entry): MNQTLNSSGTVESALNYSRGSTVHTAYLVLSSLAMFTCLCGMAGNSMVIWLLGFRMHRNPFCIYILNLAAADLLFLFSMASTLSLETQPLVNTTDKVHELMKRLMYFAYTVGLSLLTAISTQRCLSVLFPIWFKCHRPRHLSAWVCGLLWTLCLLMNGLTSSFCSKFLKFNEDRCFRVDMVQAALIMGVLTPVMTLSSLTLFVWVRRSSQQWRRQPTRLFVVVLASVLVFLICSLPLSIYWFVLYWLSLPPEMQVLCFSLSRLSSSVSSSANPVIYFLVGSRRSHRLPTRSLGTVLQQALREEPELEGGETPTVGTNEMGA
Description: Cells were grown in DMEM medium containing 10% FBS, 1× non-essential amino acids (Gibco #111450-040), 20 mM HEPES and 250 μg/mL Geneticin® (Gibco #10131-035). Cells were harvested with 0.25% Trypsin/EDTA (Gibco #25200-056), pelleted at 1,200×g for 6 minutes and resuspended in DMEM media described above minus Geneticin®. The cells were seeded at 4×10^4 cells/well/100 μL of a clear bottom/black 96-well plate and grown overnight. The calcium mobilization assays was performed using Screen Quest Fluo-8 Medium Removal Calcium Assay Kit (AAT Bioquest #36308) according to the manufacturer's protocol. Briefly, cells were washed with 100 μL volume of Hank's balanced salt solution, 20 mM HEPES, pH 7.4 and loaded with a buffer containing HBSS, 20 mM HEPES, 1× Pluronic F127 and the Fluo-8 NW dye. The cells were incubated for 30 minutes at 37° C. followed by a 30 minute room temperature incubation. Drug stocks were prepared at 100× concentration and diluted 1:33 in HBSS, 20 mM HEPES, pH 7.4 in a 96-well plate (Corning #3641). Calcium mobilization was measured using the FlexStation 3 (Molecular Devices) at excitation wavelength of 490 nm and emission wavelength of 525 nm. Fluorescence was measured for 180 seconds at 5 second intervals with the addition of compound at a 1:3 dilution after 15 seconds. Peak fluorescence values were calculated using SoftMax Pro 5 (Molecular Devices). The fluorescence values obtained from control wells without cells are subtracted from wells containing treated cells to correct for background. The ratio of fluorescence values of treated cells to vehicle control wells was used to calculate fold activity of the compounds.
MRGD cells (EMD Millipore, MA) were treated with either β-alanine, or alamandine at various concentrations (FIG. 10) and calcium mobilization was monitored using a FlexStation 3 Microplate Reader (Molecular Devices) as described in Example 4.

[2] = target: MAS-related G-protein-coupled receptor member D (MRGD) (human, UniProt Q8TDS7 1-321); assay: cell-based or functional assay
Sequence of MAS-related G-protein-coupled receptor member D (MRGD) (Q8TDS7 whole entry): as above

MRGX1 = MRGX1 (UniProt Q96LB2 1-322, limits assumed); assay: cell-based or functional assay
Sequence of MRGX1 (Q96LB2 whole entry): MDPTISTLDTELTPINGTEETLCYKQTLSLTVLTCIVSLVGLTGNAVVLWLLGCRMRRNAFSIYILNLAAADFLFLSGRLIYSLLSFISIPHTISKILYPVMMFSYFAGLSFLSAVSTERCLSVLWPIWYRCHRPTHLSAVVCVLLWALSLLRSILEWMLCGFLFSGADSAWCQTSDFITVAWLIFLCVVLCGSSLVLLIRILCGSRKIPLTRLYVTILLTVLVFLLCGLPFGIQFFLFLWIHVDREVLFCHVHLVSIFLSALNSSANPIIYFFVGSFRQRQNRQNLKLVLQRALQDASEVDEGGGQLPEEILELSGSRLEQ

[3] = target: GPCR40, the free fatty acid receptor (human, UniProt O14842 1-300); assay: cell-based or functional assay
Sequence of GPCR40, the free fatty acid receptor (O14842 whole entry): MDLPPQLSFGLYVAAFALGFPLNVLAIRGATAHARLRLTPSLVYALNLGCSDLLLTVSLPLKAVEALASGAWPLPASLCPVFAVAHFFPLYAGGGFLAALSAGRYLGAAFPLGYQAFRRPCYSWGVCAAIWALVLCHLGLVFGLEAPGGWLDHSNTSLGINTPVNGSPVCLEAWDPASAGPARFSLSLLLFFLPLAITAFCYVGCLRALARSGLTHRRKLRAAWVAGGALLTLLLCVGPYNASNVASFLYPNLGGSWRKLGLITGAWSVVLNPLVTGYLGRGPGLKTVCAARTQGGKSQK

MC4 = MC4 (UniProt P32245 1-332); assay: cell-based or functional assay
Sequence of MC4 (P32245 whole entry): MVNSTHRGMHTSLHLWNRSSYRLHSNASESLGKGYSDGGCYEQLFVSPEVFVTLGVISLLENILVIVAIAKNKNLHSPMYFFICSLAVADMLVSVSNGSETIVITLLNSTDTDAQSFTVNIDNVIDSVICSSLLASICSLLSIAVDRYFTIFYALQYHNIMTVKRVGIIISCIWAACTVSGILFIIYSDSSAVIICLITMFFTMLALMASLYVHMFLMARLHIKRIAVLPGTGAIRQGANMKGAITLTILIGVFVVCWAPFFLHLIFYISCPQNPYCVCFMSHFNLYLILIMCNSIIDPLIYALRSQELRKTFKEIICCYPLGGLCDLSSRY

Sequence of GPCR109a (Q8TDS4 whole entry): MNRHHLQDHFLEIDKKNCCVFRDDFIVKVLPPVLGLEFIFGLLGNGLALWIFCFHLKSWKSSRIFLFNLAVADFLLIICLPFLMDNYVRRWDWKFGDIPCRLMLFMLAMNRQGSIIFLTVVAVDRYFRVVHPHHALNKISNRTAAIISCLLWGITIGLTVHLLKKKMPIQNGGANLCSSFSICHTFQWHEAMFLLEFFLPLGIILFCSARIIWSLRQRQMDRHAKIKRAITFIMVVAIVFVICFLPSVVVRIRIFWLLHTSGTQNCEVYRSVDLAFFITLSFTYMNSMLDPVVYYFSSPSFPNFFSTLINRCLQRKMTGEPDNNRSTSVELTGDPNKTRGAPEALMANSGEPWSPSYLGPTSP

Molecule: CC(C)C[C@@H](NC(=O)CNC(=O)CN)C(=O)O
- activation at 1250 µM (GPCR109a; read-out: percent activation compared to standards, DT-110 @ 1.25 mM, Avg.): -8.1%
- activation at 1250 µM (GPCR109a; read-out: percent activation compared to standards, DT-110 @ 1.25 mM, n1): -8.1%
- activation at 1250 µM (GPCR109a; read-out: percent activation compared to standards, DT-110 @ 1.25 mM, n2): -8%
- activation at 12500 µM (GPCR109a; read-out: percent activation compared to standards, DT-110 @ 12.5 mM, Avg.): 54.3%
- activation at 12500 µM (GPCR109a; read-out: percent activation compared to standards, DT-110 @ 12.5 mM, n1): 52.9%
- activation at 12500 µM (GPCR109a; read-out: percent activation compared to standards, DT-110 @ 12.5 mM, n2): 55.7%
- significance of blood glucose lowering in OGTT (C57BL/6J mice; Example 5, FIG. 9, 0.1 mg/g): significant
- significance of blood glucose lowering in OGTT (C57BL/6J mice; Example 5, FIG. 9, 0.5 mg/g): significant
- significance of blood glucose lowering in OGTT (C57BL/6J mice; Example 5, FIG. 9, 1 mg/g): significant
- blood glucose in response to a glucose load (OGTT) (C57BL/6J mice; Example 5, FIG. 9, 1, 0.5 and 0.1 mg/g body weight): lower blood glucose in response to a glucose load, in a dose-dependent manner
- overall effect on blood glucose compared with metformin (C57BL/6J mice; Example 9): not found to be significantly different
- overall effect on blood glucose in OGTT vs vehicle (C57BL/6J mice; Example 9, FIG. 14, DT-110 1 mg/g, alamandine 10 mg/g, metformin 0.2 mg/g): significant
- rise in blood glucose at 30 min in OGTT (C57BL/6J mice; Example 9, DT-110 1 mg/g, P<0.001 vs. all other treatments): dramatically blocked the rise in blood glucose
- effect on blood glucose compared with alamandine (C57BL/6J mice; Example 9, P<0.001): significantly different from alamandine
- release of GLP-1 by STC-1 cells (STC-1 cells): stimulated significant release of GLP-1
- real-time Ca2+ flux (HEK293T cells): stimulate greater Ca^2+ flux
- nitric oxide (NO) release (HUVEC cells): Stimulates Nitric Oxide Release
- blood glucose [1]: lower blood glucose
- calcium mobilization activity (MRGD): active

Molecule: Gly-Gly-[dL] [DT-110, tripeptide glycine-glycine-D-leucine (GGdL)]
- EC50, calcium mobilization in MRGD cells (FIG. 12) [2]: ~360 µM
- EC50, calcium mobilization in MRGD over-expressing cells (FIG. 5) [2]: 76 µM
- EC50, calcium mobilization in the MRGD cell line (FIG. 8) [2]: 161 µM
- percent activation (calcium flux, GPCRProfiler), DT-110 @ 1.25 mM, Avg. (MRGX1): -1.9%
- percent activation (calcium flux, GPCRProfiler), DT-110 @ 1.25 mM, n1 (MRGX1): -1.3%
- percent activation (calcium flux, GPCRProfiler), DT-110 @ 1.25 mM, n2 (MRGX1): -2.5%
- percent activation (calcium flux, GPCRProfiler), DT-110 @ 12.5 mM, Avg. (MRGX1): -6.6%
- percent activation (calcium flux, GPCRProfiler), DT-110 @ 12.5 mM, n1 (MRGX1): -6.7%
- percent activation (calcium flux, GPCRProfiler), DT-110 @ 12.5 mM, n2 (MRGX1): -6.6%
- percent activation (calcium flux, GPCRProfiler), DT-110 @ 1.25 mM, Avg. [3]: -9.5%
- percent activation (calcium flux, GPCRProfiler), DT-110 @ 1.25 mM, n1 [3]: -9.3%
- percent activation (calcium flux, GPCRProfiler), DT-110 @ 1.25 mM, n2 [3]: -9.6%
- percent activation (calcium flux, GPCRProfiler), DT-110 @ 12.5 mM, Avg. [3]: 50.2%
- percent activation (calcium flux, GPCRProfiler), DT-110 @ 12.5 mM, n1 [3]: 55.9%
- percent activation (calcium flux, GPCRProfiler), DT-110 @ 12.5 mM, n2 [3]: 44.5%
- percent activation (calcium flux, GPCRProfiler), DT-110 @ 1.25 mM, Avg. (MC4): -0.5%
- percent activation (calcium flux, GPCRProfiler), DT-110 @ 1.25 mM, n1 (MC4): 3%
- percent activation (calcium flux, GPCRProfiler), DT-110 @ 1.25 mM, n2 (MC4): -4%
- percent activation (calcium flux, GPCRProfiler), DT-110 @ 12.5 mM, Avg. (MC4): 3.4%
- percent activation (calcium flux, GPCRProfiler), DT-110 @ 12.5 mM, n1 (MC4): -0.2%
- percent activation (calcium flux, GPCRProfiler), DT-110 @ 12.5 mM, n2 (MC4): 7%
